From the Immune Epitope Database (IEDB)

Assays:
HLA-A*02:01 [1] = test: IEDB peptide-MHC binding, purified MHC/competitive/fluorescence; ≥ and ≤ were set here for values at or beyond the usual limits of such assays
HLA-A*24:02 = test: as above
HLA-B*07:02 = test: as above
HLA-B*51:01 [2] = test: IEDB peptide-MHC binding, purified MHC/direct/fluorescence; filed as Kd, often an IC50 or EC50 that approximates it; ≥ and ≤ were set here for values at or beyond the usual limits of such assays; details: source organism: Helicobacter pylori
HLA-B*15:42 = test: IEDB peptide-MHC binding, purified MHC/competitive/fluorescence; filed as Kd, often an IC50 or EC50 that approximates it; ≥ and ≤ were set here for values at or beyond the usual limits of such assays
HLA-B*45:06 = test: as above; details: source organism: Helicobacter pylori 26695
HLA-B*83:01 = test: as above
HLA-C*04:01 = test: as above
HLA-A*68:02 = test: as above; details: source organism: Yersinia pestis Nepal516
HLA-A*02:01 [3] = test: as above; details: source organism: Encephalitozoon cuniculi GB-M1
HLA-A*02:03 = test: as above; details: source organism: Encephalitozoon cuniculi GB-M1
HLA-A*02:11 = test: as above; details: source organism: Encephalitozoon cuniculi GB-M1
HLA-A*02:12 = test: as above; details: source organism: Encephalitozoon cuniculi GB-M1
HLA-A*02:19 = test: as above; details: source organism: Encephalitozoon cuniculi GB-M1
HLA-A*03:01 = test: as above; details: source organism: Encephalitozoon cuniculi GB-M1
HLA-A*24:03 = test: as above; details: source organism: Encephalitozoon cuniculi GB-M1
HLA-A*26:01 = test: as above; details: source organism: Encephalitozoon cuniculi GB-M1
HLA-A*29:02 = test: as above; details: source organism: Encephalitozoon cuniculi GB-M1
HLA-B*15:01 = test: as above; details: source organism: Encephalitozoon cuniculi GB-M1
HLA-B*18:01 = test: as above; details: source organism: Encephalitozoon cuniculi GB-M1
HLA-B*27:03 = test: as above; details: source organism: Encephalitozoon cuniculi GB-M1
HLA-B*39:01 = test: as above; details: source organism: Encephalitozoon cuniculi GB-M1
HLA-B*46:01 = test: as above; details: source organism: Encephalitozoon cuniculi GB-M1
HLA-B*51:01 [4] = test: as above; details: source organism: Encephalitozoon cuniculi GB-M1
HLA-B*57:01 = test: as above; details: source organism: Encephalitozoon cuniculi GB-M1
[5] = source organism: Zaire ebolavirus
[6] = source organism: Helicobacter pylori 26695
[7] = source organism: Yersinia pestis Nepal516

ARLLNLSGV
IC50 (HLA-A*02:01 [1]; [5]): 9.98 µM | IC50 (HLA-A*24:02; [5]): 32.8 µM | IC50 (HLA-B*07:02; [5]): ≥ 152 µM

FPIQDFPII
Kd (HLA-B*51:01 [2]): 0.156 µM | Kd (HLA-B*15:42; [6]): ≥ 5 µM | Kd (HLA-B*45:06): ≥ 5 µM | Kd (HLA-B*83:01; [6]): 2.74 µM | Kd (HLA-C*04:01; [6]): ≥ 5 µM

MTHPQSEAA
Kd (HLA-A*68:02): ≤ 0.0001 µM | Kd (HLA-B*15:42; [7]): ≥ 5 µM | Kd (HLA-B*83:01; [7]): ≥ 5 µM | Kd (HLA-C*04:01; [7]): ≥ 5 µM

NLFEIEWEE
Kd (HLA-A*02:01 [3]): ≥ 20 µM | Kd (HLA-A*02:03): ≥ 20 µM | Kd (HLA-A*02:11): ≥ 20 µM | Kd (HLA-A*02:12): 0.298 µM | Kd (HLA-A*02:19): ≥ 20 µM | Kd (HLA-A*03:01): ≥ 20 µM | Kd (HLA-A*24:03): ≥ 20 µM | Kd (HLA-A*26:01): ≥ 20 µM | Kd (HLA-A*29:02): ≥ 20 µM | Kd (HLA-B*15:01): ≥ 20 µM | Kd (HLA-B*18:01): ≥ 20 µM | Kd (HLA-B*27:03): ≥ 20 µM | Kd (HLA-B*39:01): ≥ 20 µM | Kd (HLA-B*46:01): ≥ 20 µM | Kd (HLA-B*51:01 [4]): ≥ 20 µM | Kd (HLA-B*57:01): ≥ 20 µM

RPVVLTGGT
IC50 (HLA-A*02:01 [1]; source organism: Variola virus): ≥ 89.9 µM | IC50 (HLA-A*24:02; source organism: Variola virus): 0.104 µM | IC50 (HLA-B*07:02; source organism: Variola virus): 24.1 µM
